Experimental findings from publication PMC3572911 (Biochemistry, 2013) are described below.

What is called stoichiometry N is the number of molecules, sites or subunits per partner or assembly.

This data set concerns the molecule itself. As to the kind of experiment: crystal structure.

B1: human liver pyruvate kinase (L-PYK) with the S12D mimic of phosphorylation (enzyme)
chain: not shown
modifications: Cys436 partially oxidized to the sulfenic derivative (sulfenic acid)
As for B1, the “stoichiometry N” value was 4.
